Columns and labels:
[1] = target: 33‐mer gliadin peptide (wheat); experiment: surface tension (Wilhelmy plate); titration of freshly filtered (220 nm cut-off) peptide into the subphase, nanomolar range, 22 °C; critical concentration of aggregation
[2] = target: 33‐mer gliadin peptide (wheat); experiment: other fluorescence titration; intrinsic Tyr steady-state fluorescence anisotropy against peptide concentration (100-600 μM), stabilised aqueous solution pH 6.5, 25 °C, excitation 280 nm, emission 305 nm; simple one-to-one binding model; step: association of oligomers into the larger structures

critical concentration of aggregation (CAC) [1]: 75 nM
Kd [2]: 165 µM
Substance: 33‐mer gliadin peptide
